Entries after “also recorded” stand apart in the source; their conditions may differ.
Assays:
[1] = biological target: T1, human NgR1 (Homo sapiens, UniProt Q9BZR6); assay: Antibody binding specificity: human Nogo receptor-1
T1 sequence (Q9BZR6 27-447): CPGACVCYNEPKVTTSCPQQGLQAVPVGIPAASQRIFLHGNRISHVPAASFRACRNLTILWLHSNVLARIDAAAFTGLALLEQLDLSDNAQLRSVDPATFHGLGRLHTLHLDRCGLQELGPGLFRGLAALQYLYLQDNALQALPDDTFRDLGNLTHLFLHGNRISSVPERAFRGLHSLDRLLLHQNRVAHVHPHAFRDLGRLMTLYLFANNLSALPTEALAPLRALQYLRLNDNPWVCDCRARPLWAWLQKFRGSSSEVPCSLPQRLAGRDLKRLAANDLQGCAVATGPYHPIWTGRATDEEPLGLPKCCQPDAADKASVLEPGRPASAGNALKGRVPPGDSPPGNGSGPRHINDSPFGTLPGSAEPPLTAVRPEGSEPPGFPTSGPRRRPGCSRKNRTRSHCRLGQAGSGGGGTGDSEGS

[2] = biological target: T2, fragments of rat NgR1 (sNgR310) (Rattus norvegicus, UniProt Q99M75, A303T/C287S/C43R/E284G/T53A); assay: Western blot of acid/CNBr fragments of sNgR310 probed with 7E11; assay type: binding
T2 construct: intact rat NgR1 (aa 27-aa 310); made in house
T2 sequence (Q99M75 27-310 C43R/T53A/E284G/C287S/A303T): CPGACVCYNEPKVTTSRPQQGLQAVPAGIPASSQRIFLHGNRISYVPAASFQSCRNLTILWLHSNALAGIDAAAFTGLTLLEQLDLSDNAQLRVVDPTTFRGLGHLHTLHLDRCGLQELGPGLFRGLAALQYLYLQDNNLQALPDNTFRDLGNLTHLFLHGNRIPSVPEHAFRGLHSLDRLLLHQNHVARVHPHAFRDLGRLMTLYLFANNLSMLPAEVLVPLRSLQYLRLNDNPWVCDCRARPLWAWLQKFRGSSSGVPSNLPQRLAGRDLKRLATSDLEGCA
Procedure: (§1) A recombinant fragment of the rat NgR1 that contains all 8 LRR domains and the N- and C-terminal caps (sNgR310) was treated with either acid or cyanogen bromide (CNBr) and separated the fragments by gel electrophoresis. Untreated sNgR310 migrates with an apparent molecular weight of 42 kDa. Acid treatment of sNgR310 produced two major cleavage products of 15 kDa (aa 27-aa 122) and 30 kDa (aa 123-aa 310). CNBr treatment generated three fragments, a 33/35 kDa doublet (aa 27-aa 229), which may represent fragments with heterogeneous glycosylation, a 10 kDa product (aa 241-aa 310), and an 11-amino-acid fragment (as 230-aa 240), which is not retained on the gel. […] Both the 15 kDa acid fragment and the 35 kDa CNBr fragment contained the sequence […] (SEQ ID NO: 1), consistent with 7E11 binding to a single epitope on NgR1.

[3] = biological target: T3, fragments of rat NgR1 (sNgR310) (Rattus norvegicus, UniProt Q99M75, A303T/C287S/E284G); assay: as above; assay type: binding
T3 construct: intact rat NgR1 (aa 27-aa 310); made in house
T3 sequence (Q99M75 241-310 E284G/C287S/A303T): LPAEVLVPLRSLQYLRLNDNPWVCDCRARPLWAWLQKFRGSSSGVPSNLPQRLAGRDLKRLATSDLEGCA
Procedure: as §1

[4] = biological target: T4, fragments of rat NgR1 (sNgR310) (Rattus norvegicus, UniProt Q99M75, A303T/C287S/E284G); assay: as above; assay type: binding; remark: listed apart in the source
T4 construct: intact rat NgR1 (aa 27-aa 310); made in house
T4 sequence (Q99M75 123-310 E284G/C287S/A303T): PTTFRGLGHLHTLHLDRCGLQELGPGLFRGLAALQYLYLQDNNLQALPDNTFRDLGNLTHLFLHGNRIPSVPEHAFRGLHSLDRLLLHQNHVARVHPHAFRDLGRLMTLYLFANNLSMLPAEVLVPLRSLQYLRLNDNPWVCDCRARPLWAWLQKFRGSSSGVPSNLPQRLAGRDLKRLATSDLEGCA
Procedure: as §1

[5] = biological target: T5, fragments of rat NgR1 (sNgR310) (Rattus norvegicus, UniProt Q99M75, C43R/T53A); assay: as above; assay type: binding
T5 construct: intact rat NgR1 (aa 27-aa 310); made in house
T5 sequence (Q99M75 27-122 C43R/T53A): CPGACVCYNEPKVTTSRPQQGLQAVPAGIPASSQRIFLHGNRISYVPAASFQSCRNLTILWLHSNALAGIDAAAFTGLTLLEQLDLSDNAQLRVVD
Procedure: as §1

[6] = biological target: T6, fragments of rat NgR1 (sNgR310) (Rattus norvegicus, UniProt Q99M75, C43R/T53A); assay: as above; assay type: binding; remark: listed apart in the source
T6 construct: intact rat NgR1 (aa 27-aa 310); made in house
T6 sequence (Q99M75 27-229 C43R/T53A): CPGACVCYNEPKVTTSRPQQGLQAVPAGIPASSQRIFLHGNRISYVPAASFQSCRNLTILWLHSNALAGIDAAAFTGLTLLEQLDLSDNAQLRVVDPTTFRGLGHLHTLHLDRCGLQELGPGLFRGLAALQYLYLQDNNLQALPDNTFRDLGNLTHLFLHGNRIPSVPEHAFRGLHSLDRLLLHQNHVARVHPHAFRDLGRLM
Procedure: as §1

binding to human Nogo receptor-1 [1]: bound; also recorded: binds well | binding to intact rat NgR1 (aa 27-aa 310) [2]: bound | binding to the 10 kDa CNBr fragment (aa 241-aa 310) [3]: did not bind | binding to the 30 kDa acid fragment (aa 123-aa 310) [4]: did not bind | binding to the 15 kDa acid fragment (aa 27-aa 122) [5]: bound | binding to the 35 kDa CNBr fragment (aa 27-aa 229) [6]: bound
B1: 7E11: murine monoclonal anti-Nogo receptor-1 antibody, immunogen rat Nogo receptor-1 residues 110-125, IgG1 kappa, ATCC PTA-4587 (antibody, V domains shown)
VH: VQLQESGAELVMPGASVKMSCKASGYTFTDYWMHWVKQRPGQGLEWIGAIDPSDSYSSYNQNFKGKATLTVDGSSSTAYMQLSSLTSEDSAVYYCARRITEAGAWFAYWGQGTTVT
VL: MKLPVRLLVLMFWIPASSSDVVMTQTPLSLPVSLGDQASISCRSSQSLVHSNGNTYLHWYLQKPGQSPKLLIYKVSNRFSGVPDRFSGSGSGTDFTLKISRVDAEDLGVYFCSQSTHVPFTFGGGTKLEIKRADAAPTVSISHH
modifications: 7E11 heavy chain; 7E11 light chain
notes: murine monoclonal anti-Nogo receptor-1 antibody, immunogen rat Nogo receptor-1 residues 110-125, IgG1 kappa, ATCC PTA-4587

From US9228015B2, “Nogo receptor antagonists and methods of increasing neurite outgrowth” (Biogen Idec MA Inc., priority 2006, dated 2016)
